Assay results published in paper PMC5177617, “Complement Protein C1q Interacts with DC-SIGN via Its Globular Domain and Thus May Interfere with HIV-1 Transmission” (Frontiers in Immunology, 2016).

T1: soluble DC-SIGNR tetramer (entire extracellular domain including the α-helical neck region) (UniProt Q9H2X3 71-399)
T1 construct: DC-SIGNR (DC-SIGN-related), entire extracellular domain (α-helical neck region and carbohydrate recognition domain); also called DC-SIGNR ECD
T1 sequence (looked up): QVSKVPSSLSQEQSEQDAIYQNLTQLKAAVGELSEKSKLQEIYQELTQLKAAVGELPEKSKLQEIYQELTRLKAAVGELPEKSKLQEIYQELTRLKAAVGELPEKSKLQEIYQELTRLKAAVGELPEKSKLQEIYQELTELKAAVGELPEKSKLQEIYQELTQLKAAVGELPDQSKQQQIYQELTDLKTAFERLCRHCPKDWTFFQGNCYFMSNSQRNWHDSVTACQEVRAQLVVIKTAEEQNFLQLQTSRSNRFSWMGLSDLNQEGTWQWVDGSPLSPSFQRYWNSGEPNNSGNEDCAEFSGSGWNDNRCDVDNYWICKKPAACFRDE

T2: soluble DC-SIGN tetramer (entire extracellular domain including the α-helical neck region) (UniProt Q9NNX6 59-404)
T2 construct: DC-SIGN, entire extracellular domain (α-helical neck region and carbohydrate recognition domain); also called DC-SIGN ECD; tetrameric DC-SIGN
T2 sequence (looked up): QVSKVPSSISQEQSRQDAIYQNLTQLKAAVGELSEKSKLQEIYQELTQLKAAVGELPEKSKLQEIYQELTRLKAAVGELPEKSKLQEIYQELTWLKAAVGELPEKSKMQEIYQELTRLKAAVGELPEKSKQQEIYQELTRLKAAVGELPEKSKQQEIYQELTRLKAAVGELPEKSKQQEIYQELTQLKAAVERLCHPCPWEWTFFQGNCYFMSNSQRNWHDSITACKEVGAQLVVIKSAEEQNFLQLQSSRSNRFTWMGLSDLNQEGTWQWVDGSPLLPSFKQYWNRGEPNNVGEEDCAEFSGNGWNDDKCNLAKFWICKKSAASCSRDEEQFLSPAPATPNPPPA


Key:
[1] = target: soluble DC-SIGNR tetramer (entire extracellular domain including the α-helical neck region) (UniProt Q9H2X3); test: ELISA; DC-SIGN or DC-SIGNR (tetramer or monomer) coated (5, 2.5, 1.25, 0.625 µg/well, carbonate-bicarbonate buffer pH 9.6); ghA, ghB, ghC or mutants 2.5 µg/100 µl in 50 mM NaCl, 100 mM Tris-HCl pH 7.5, 5 mM CaCl2; 37°C […] then 4°C […]; detected with anti-MBP; percent binding against the wild-type module as 100%
[2] = target: soluble DC-SIGN tetramer (entire extracellular domain including the α-helical neck region) (UniProt Q9NNX6); test: as above
[3] = target: T1, soluble DC-SIGNR tetramer (entire …); test: ELISA; DC-SIGN or DC-SIGNR (tetramer or monomer) coated (5, 2.5, 1.25, 0.625 µg/well, carbonate-bicarbonate buffer pH 9.6); ghA, ghB, ghC or mutants 2.5 µg/100 µl in 50 mM NaCl, 100 mM Tris-HCl pH 7.5, 5 mM CaCl2; 37°C 1.5 h then 4°C 1.5 h; detected with anti-MBP; percent binding against the wild-type module as 100%; conditions: both partners purified
[4] = target: T2, soluble DC-SIGN tetramer (entire …); test: as above; conditions: both partners purified

| Molecule | % binding (wild-type module = 100%) [1] | % binding (wild-type module = 100%) [2] | also measured |
| --- | --- | --- | --- |
| ghA substitution mutant Arg^A162Ala (from UniProt P02745 23-245) (domain or fragment) | 73.2% | 77.7% | – |
| ghB substitution mutant His^B117Asp (from UniProt P02746 28-253) (domain or fragment) | 41% | 36.4% | – |
| ghB substitution mutant Arg^B114Gln (from UniProt P02746 28-253) (domain or fragment) | 50.3% | 52.5% | % reduction in binding against wild-type ghB [2]: 80% |
| ghC substitution mutant His^101Ala (from UniProt P02747 29-245) (domain or fragment) | 113% | 90.2% | – |
| ghB substitution mutant Arg^B129Ala (from UniProt P02746 28-253) (domain or fragment) | 92.5% | 75% | – |
| ghC substitution mutant Leu^170Glu (domain or fragment) | 79.8% | 78.3% | – |
| ghB substitution mutant Tyr^B175Leu (from UniProt P02746 28-253) (domain or fragment) | 37.2% | 37.9% | % decrease in binding against wild-type ghB (at 0.625 µg of DC-SIGNR) [1]: < 90%; % decrease in binding against wild-type ghB (at 0.625 µg of DC-SIGN) [2]: < 90%; % reduction in binding against wild-type ghB [2]: 82% |
| ghB substitution mutant ArgB114Ala (from UniProt P02746 28-253) (domain or fragment) | 61.4% | 57.4% | % reduction in binding against wild-type ghB [2]: 80% |
| ghB substitution mutant Arg^B163Ala (from UniProt P02746 28-253) (domain or fragment) | 120% | 68.8% | – |
| ghB substitution mutant Arg^B163Glu (from UniProt P02746 28-253) (domain or fragment) | 65.7% | 48.3% | – |
| ghA substitution mutant Arg^A162Glu (from UniProt P02745 23-245) (domain or fragment) | 94.8% | 66.4% | % reduction in binding against wild-type ghA (at 5 µg of DC-SIGNR) [1]: 15% |
| ghB substitution mutant Arg^B129Glu (from UniProt P02746 28-253) (domain or fragment) | 137% | 93.9% | – |
| ghC substitution mutant Arg^156Glu (from UniProt P02747 29-245) (domain or fragment) | 75.8% | 101% | – |
| recombinant globular head module ghA of human C1q, fused to maltose-binding protein (domain or fragment, UniProt P02745 110-245, looked up, globular head region of the A chain of human C1q (ghA module); as I recall ghA is residues 88-223 of the mature A chain with MBP at the N-terminus; source: E. coli BL21, purified (amylose resin)) KDQPRPAFSAIRRNPPMGGNVVIFDTVITNQEEPYQNHSGRFVCTVPGYYYFTFQVLSQWEICLSIVSSSRGQVRRSLGFCDTTNKGLFQVVSGGMVLQLQQGDQVWVEKDPKKGHIYQGSEADSVFSGFLIFPSA | – | – | % binding (wild-type module = 100%) [3]: 100%; % binding (wild-type module = 100%) [4]: 100% |
| recombinant globular head module ghB of human C1q, fused to maltose-binding protein (domain or fragment, UniProt P02746 117-253, looked up, globular head region of the B chain of human C1q (ghB module); source: E. coli BL21, purified (amylose resin)) KATQKIAFSATRTINVPLRRDQTIRFDHVITNMNNNYEPRSGKFTCKVPGLYYFTYHASSRGNLCVNLMRGRERAQKVVTFCDYAYNTFQVTTGGMVLKLEQGENVFLQATDKNSLLGMEGANSIFSGFLLFPDMEA | – | – | % binding (wild-type module = 100%) [3]: 100%; % binding (wild-type module = 100%) [4]: 100% |
| ghB substitution mutant Leu^B136Gly (domain or fragment) KATQKIAFSATRTINVPLRRDQTIRFDHVITNMNNNYEPRSGKFTCGVPGLYYFTYHASSRGNLCVNLMRGRERAQKVVTFCDYAYNTFQVTTGGMVLKLEQGENVFLQATDKNSLLGMEGANSIFSGFLLFPDMEA | – | – | % binding (wild-type module = 100%) [3]: 54%; % binding (wild-type module = 100%) [4]: 47.7% |
| recombinant globular head module ghC of human C1q, fused to maltose-binding protein (domain or fragment, UniProt P02747 115-245, looked up, globular head region of the C chain of human C1q (ghC module); as I recall ghC is residues 87-217 of the mature C chain with MBP at the N-terminus; source: E. coli BL21, purified (amylose resin)) KQKFQSVFTVTRQTHQPPAPNSLIRFNAVLTNPQGDYDTSTGKFTCKVPGLYYFVYHASHTANLCVLLYRSGVKVVTFCGHTSKTNQVNSGGVLLRLQVGEEVWLAVNDYYDMVGIQGSDSVFSGFLLFPD | – | – | % binding (wild-type module = 100%) [3]: 100%; % binding (wild-type module = 100%) [4]: 100% |
